Results: US20250388643A1, “GLUCAGON-LIKE PEPTIDE-2 COMPOSITIONS AND METHODS OF MAKING AND USING SAME” (Amunix Pharmaceuticals, Inc., priority 2011, published 2025)
Like-named read-outs stand apart in the source and are kept apart here.

Key:
[1] = tested on: DSS-induced intestinal colitis in C57Bl/6 mice; assay: Murine acute DSS-induced colitis model; format: in vivo, mouse
Description: To determine the efficacy of GLP2-XTEN, the GLP2-2G-XTEN-AE864 fusion protein was evaluated in a mouse model of intestinal inflammatory colitis. […] A naïve, non-treated control group (group 1) was given normal drinking water for the duration of the experiment. […] Tissues were fixed in formalin and then transferred to ethanol for staining and histopathology. The anatomical data was analyzed with an ANOVA model with a Tukey/Kramer post-hoc test for pairwise comparisons, with significance at p=0.05.

[2] = tested on: indomethacin-induced intestinal inflammation in Wistar rats; format: in vivo, rat
Description: Study 2: Intestinal inflammation was induced in eighty male Wistar rats (Harlan Sprague Dawley) using indomethacin administered on Days 0 and 1 of the experiment. The rats were divided into eight treatment groups for treatment according to Table 20. All treatments were administered per the schedule starting on Day-3 of the experiment. Body weights were determined daily. On Day 2 (24 hours post-2nd indomethacin dose), the animals were prepped for sacrifice and analysis. Thirty minutes prior to sacrifice, the rats were injected intravenously with 1 ml 1% Evans Blue dye, in order to visualize ulcers and extent of inflammation by histopathology analysis. The rats were anesthetized and blood samples were removed to determine the concentration of GLP-2-2G-XTEN using the anti-XTEN/anti-GLP2 ELISA method. The rats were euthanized then necropsied and scored by gross examination of the intestines for the presence of adhesions; i.e., none=0, mild=1, moderate=2, or severe=3. The small intestines were removed and the length of each was recorded. In each small intestine, a longitudinal incision was made and the interior was examined. The degree and length of the ulcerated area was recorded as a score; i.e., none=0, few=1, multiple=2, or continuous=3. The fecal material was washed away with saline and blotted to remove excess fluid and each small intestine was weighed then processed for histopathology examination to quantitate the degree of inflammation; i.e., 0.0%=0, 1-33%=1, 34-66%=2, 67-100%=3.

B1: GLP2-2G-XTEN_AE864: fusion protein of GLP-2 with glycine at position 2 linked at the C-terminus to XTEN AE864; sequence of FIG. 28 (SEQ ID NO: 798) (protein)
chain: HGDGSFSDEMNTILDNLAARDFINWLIQTKITDGGSPAGSPTSTEEGTSESATPESGPGTSTEPSEGSAPGSPAGSPTSTEEGTSTEPSEGSAPGTSTEPSEGSAPGTSESATPESGPGSEPATSGSETPGSEPATSGSETPGSPAGSPTSTEEGTSESATPESGPGTSTEPSEGSAPGTSTEPSEGSAPGSPAGSPTSTEEGTSTEPSEGSAPGTSTEPSEGSAPGTSESATPESGPGTSTEPSEGSAPGTSESATPESGPGSEPATSGSETPGTSTEPSEGSAPGTSTEPSEGSAPGTSESATPESGPGTSESATPESGPGSPAGSPTSTEEGTSESATPESGPGSEPATSGSETPGTSESATPESGPGTSTEPSEGSAPGTSTEPSEGSAPGTSTEPSEGSAPGTSTEPSEGSAPGTSTEPSEGSAPGTSTEPSEGSAPGSPAGSPTSTEEGTSTEPSEGSAPGTSESATPESGPGSEPATSGSETPGTSESATPESGPGSEPATSGSETPGTSESATPESGPGTSTEPSEGSAPGTSESATPESGPGSPAGSPTSTEEGSPAGSPTSTEEGSPAGSPTSTEEGTSESATPESGPGTSTEPSEGSAPGTSESATPESGPGSEPATSGSETPGTSESATPESGPGSEPATSGSETPGTSESATPESGPGTSTEPSEGSAPGSPAGSPTSTEEGTSESATPESGPGSEPATSGSETPGTSESATPESGPGSPAGSPTSTEEGSPAGSPTSTEEGTSTEPSEGSAPGTSESATPESGPGTSESATPESGPGTSESATPESGPGSEPATSGSETPGSEPATSGSETPGSPAGSPTSTEEGTSTEPSEGSAPGTSTEPSEGSAPGSEPATSGSETPGTSESATPESGPGTSTEPSEGSAPG
For B1, the “histopathology of small intestine” value ([1]; DSS-treated mice, 6 mg/kg qd) was “normal mucosal architecture with elongated villi densely populated with columnar epithelial and goblet cells”, the “loss of body weight” value ([1]; DSS-treated mice, SC days 1-10, peptide BID, fusion protein QD, any dose) was “neither the mice treated with GLP2-2G peptide nor any of the groups of mice treated with any dose of GLP2-2G-XTEN mice showed a reduced loss of body weight” and the “protection of the intestines from inflammatory effects of DSS” value ([1]; conclusion of the experiment) was “protected the intestines from the inflammatory effects of DSS, with maintenance of normal villi and mucosal architecture”. The small intestine weight ([1]; high dose group (6 mg/kg), compared to control groups 1 and 2, day 10) was “increase in small intestine weight”, the small intestine weight ([1]; medium dose group (2 mg/kg), compared to group 1, day 10) was “increase in small intestine weight” and the “protection of the intestines from inflammatory effects of indomethacin” value ([2]; conclusion of the experiment) was “provided significant protection to the intestines from the inflammatory effects of indomethacin”. For the same molecule, the “histopathology: protective effects” value ([2]; daily bid peptide, once-daily fusion protein) was “most pronounced in the ileum, but were also seen in the jejunum”, the efficacy by regimen ([2]; daily dosing at 2 mg/kg) was “greatest efficacy” and the adhesions score ([2]; once-daily fusion protein, daily bid peptide, FIG. 22B) was “nearly complete protection from adhesions”. For the same molecule, the small intestine length ([2]; once-daily fusion protein, daily bid peptide, vs indomethacin-treated vehicle control) was “reached statistically significant difference”, the total disease score ([2]; peptide delivered bid, fusion protein delivered qd, vs indomethacin-treated vehicle control) was “significantly improved scores” and the “fusion protein in blood samples (anti-XTEN/anti-GLP2 ELISA)” value ([2]; rat, in vivo) was “detectable at Day 2 in all animals of Group 4 and Group 8, and three rats in Group 7”. For the same molecule, the total disease score ([2]; single doses at 6 or 2 mg/kg, vs indomethacin-treated vehicle control) was “significantly improved scores”, the efficacy by regimen ([2]; single doses of 6 mg/kg or 2 mg/kg) was “significant efficacy in some parameters” and the adhesions score ([2]; single high-dose 6 mg/kg) was “reached statistically significant difference”.
